B1: STK4 (residues 1–326) K59R [human] / HOIP (residues 854–1072) [not stated] (parent complex)
chain 1: METVQLRNPPRRQLKKLDEDSLTKQPEEVFDVLEKLGEGSYGSVYKAIHKETGQIVAIRQVPVESDLQEIIKEISIMQQCDSPHVVKYYGSYFKNTDLWIVMEYCGAGSVSDIIRLRNKTLTEDEIATILQSTLKGLEYLHFMRKIHRDIKAGNILLNTEGHAKLADFGVAGQLTDTMAKRNTVIGTPFWMAPEVIQEIGYNCVADIWSLGITAIEMAEGKPPYADIHPMRAIFMIPTNPPPTFRKPELWSDNFTDFVKQCLVKSPEQRATATQLLQHPFVRSAKGVSILRDLINEAMDVKLKRQESQQREVDQDDEENSEEDEMD
chain 2: EYQAQGLAMYLQENGIDCPKCKFSYALARGGCMHFHCTQCRHQFCSGCYNAFYAKNKCPEPNCRVKKSLHGHHPRDCLFYLRDWTALRLQKLLQDNNVMFNTEPPAGARAVPGGGCRVIEQKEVPNGLRDEACGKETPAGYAGLCQAHYKEYLVSLINAHSLDPATLYEVEELETATERYLHVRPQPLAGEDPPAYQARLLQKLTEEVPLGQSIPRRRK

Variants of: B1
Assay: ITC

Row | Variant | Kd [µM]
1 | chain 1 R231E | 97.9

Reference: publication PMC12441119 (2025)
